Laboratory results from US20260201008A1, “SECRETIN-DERIVED GLP1R SELECTIVE AGONISTS” (GUBRA A/S, priority 2023, published 2026).
Like-named read-outs stand apart in the source and are kept apart here. Numbered stars: 1 amine (or outer) side, 2 acyl side, 3 side chain; on linkers, the order of the positions; unused ones are H or OH. Square brackets hold non-standard residues; d marks the D form. Side chains are listed from the residue outwards. Ends that are not written are not given here. * marks the point of attachment. C20 diacid = O=C(O)CCCCCCCCCCCCCCCCCCC(=O)*; C18 diacid = O=C(O)CCCCCCCCCCCCCCCCC(=O)*; γGlu = O=C(O)[C@H](CCC(=O)[*:2])N[*:1]; AEEA = NCCOCCOCC(=O)O; Aib = CC(C)(N)C(=O)O

B1: SEQ ID NO: 209 (peptide)
peptide: H[Aib]EGTFTSDVSYLK([AEEA-AEEA-γGlu-C20 diacid])EEA[Aib]LQRFLEHLVEAA-NH2
modifications: N-terminus assumed
SMILES: CC(C)C[C@H](NC(=O)[C@H](Cc1ccccc1)NC(=O)[C@H](CCCNC(=N)N)NC(=O)[C@H](CCC(N)=O)NC(=O)[C@H](CC(C)C)NC(=O)C(C)(C)NC(=O)[C@H](C)NC(=O)[C@H](CCC(=O)O)NC(=O)[C@H](CCC(=O)O)NC(=O)[C@H](CCCCNC(=O)COCCOCCNC(=O)COCCOCCNC(=O)CC[C@H](NC(=O)CCCCCCCCCCCCCCCCCCC(=O)O)C(=O)O)NC(=O)[C@H](CC(C)C)NC(=O)[C@H](Cc1ccc(O)cc1)NC(=O)[C@H](CO)NC(=O)[C@@H](NC(=O)[C@H](CC(=O)O)NC(=O)[C@H](CO)NC(=O)[C@@H](NC(=O)[C@H](Cc1ccccc1)NC(=O)[C@@H](NC(=O)CNC(=O)[C@H](CCC(=O)O)NC(=O)C(C)(C)NC(=O)[C@@H](N)Cc1c[nH]cn1)[C@@H](C)O)[C@@H](C)O)C(C)C)C(=O)N[C@@H](CCC(=O)O)C(=O)N[C@@H](Cc1c[nH]cn1)C(=O)N[C@@H](CC(C)C)C(=O)N[C@H](C(=O)N[C@@H](CCC(=O)O)C(=O)N[C@@H](C)C(=O)N[C@@H](C)C(N)=O)C(C)C

Columns and labels:
Assay in all cases: cell-based or functional assay
[1] = target: T1, human GLP-1 receptor (hGLP1R) (human, UniProt P43220 24-463)
[2] = target: T2, human secretin receptor (hSCTR) (human, UniProt P47872 23-440)
[3] = target: T1, human GLP-1 receptor (hGLP1R); remark: listed apart in the source
[4] = target: T2, human secretin receptor (hSCTR); remark: listed apart in the source
[5] = target: T1, human GLP-1 receptor (hGLP1R); remark: listed apart in the source
[6] = target: T2, human secretin receptor (hSCTR); remark: listed apart in the source

T2 sequence (P47872 23-440): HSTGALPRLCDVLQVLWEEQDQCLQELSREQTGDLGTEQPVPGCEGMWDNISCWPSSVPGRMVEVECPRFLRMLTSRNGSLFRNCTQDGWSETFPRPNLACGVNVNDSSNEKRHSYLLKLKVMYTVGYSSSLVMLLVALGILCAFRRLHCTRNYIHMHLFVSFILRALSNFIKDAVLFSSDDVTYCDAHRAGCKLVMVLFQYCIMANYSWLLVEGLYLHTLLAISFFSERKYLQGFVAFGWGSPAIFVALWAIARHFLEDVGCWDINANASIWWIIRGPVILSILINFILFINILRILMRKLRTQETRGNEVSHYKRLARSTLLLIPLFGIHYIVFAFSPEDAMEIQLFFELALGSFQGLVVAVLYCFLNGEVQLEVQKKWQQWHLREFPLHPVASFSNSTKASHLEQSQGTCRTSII

Binder	pEC50 hGLPR1 [1]	pEC50 hSCTR [2]	PEC50 hGLPR1 [3]	pEC50 hSCTR [4]	hGLPR1 EC50 nM (purified peptide) [5] [nM]	hGLPR1 PEC50 (purified peptide) [5]	hSCTR EC50 nM (purified peptide) [6] [nM]	hSCTR pEC50 (purified peptide) [6]
H[Aib]EGTFTSDVSFLK([AEEA-AEEA-γGlu-C20 diacid])ETAAAQRFLEHLV-NH2 [SEQ ID NO: 44]	10.5 -log M	5.4 -log M						
H[Aib]EGTFTSDVSYLK([AEEA-AEEA-γGlu-C20 diacid])E[Aib]AATQRFLEHLV-NH2 [SEQ ID NO: 48]	10.6 -log M	6.9 -log M						
H[Aib]EGTFTSDVSRLLEEA[Aib]LQRFLEK([AEEA-AEEA-γGlu-C20 diacid])LVEAA-NH2 [SEQ ID NO: 212]			10.7 -log M	7.2 -log M	0.021	10.7 -log M	60	7.2 -log M
H[Aib]EGTFTSDVSRLK([AEEA-AEEA-γGlu-C20 diacid])EEAALQRFLEHLVEAA-NH2 [SEQ ID NO: 207]			11 -log M	8.2 -log M				
H[Aib]EGTFTSDVSELLEEA[Aib]LQRFLEK([AEEA-AEEA-γGlu-C20 diacid])LVEAA-NH2 [SEQ ID NO: 214]			10.9 -log M	6.1 -log M				
H[Aib]EGTFTSDVSRLK([AEEA-AEEA-γGlu-C20 diacid])EEA[Aib]AQRFLEHLVEAA-NH2 [SEQ ID NO: 215]			11 -log M	6.3 -log M				
H[Aib]EGTFTSDVSYLK([AEEA-AEEA-γGlu-C20 diacid])EEA[Aib]LQRFLEHLV-NH2 (also: table footnote: C20DA or C18DA) [SEQ ID NO: 203]	10.7 -log M	6.7 -log M			0.017	10.8 -log M	190	6.7 -log M
H[Aib]EGTFTSDVSYLK([AEEA-AEEA-γGlu-C20 diacid])EEAAQQRFLEHLV-NH2 [SEQ ID NO: 47]	10.8 -log M	6.6 -log M						
H[Aib]EGTFTSDVSELK([AEEA-AEEA-γGlu-C20 diacid])EEA[Aib]LQRFLEHLVEAA-NH2 [SEQ ID NO: 210]			11 -log M	6.8 -log M	0.0095	11 -log M	190	6.7 -log M
H[Aib]EGTFTSDVSYLK([AEEA-AEEA-γGlu-C20 diacid])EFAA[Aib]QRFLEHLV-NH2 [SEQ ID NO: 46]	10.3 -log M	5.4 -log M						
H[Aib]EGTFTSDVSTLK([AEEA-AEEA-γGlu-C20 diacid])EEA[Aib]LQRFLEHLVEAA-NH2 [SEQ ID NO: 211]			11.2 -log M	7.1 -log M				
H[Aib]EGTFTSDVSRLK([AEEA-AEEA-γGlu-C18 diacid])EGAAEQRFLQHLVEAA-NH2 [SEQ ID NO: 205]			11.1 -log M	5.3 -log M				
H[Aib]EGTFTSDVSELK([AEEA-AEEA-γGlu-C20 diacid])EEA[Aib]LQRFLEHLV-NH2 [SEQ ID NO: 168]	11.2 -log M	7.3 -log M			0.012	10.9 -log M	100	7 -log M
H[Aib]EGTFTSDVSRLK([AEEA-AEEA-γGlu-C18 diacid])EGAAEQRFLQHLVEAE-NH2 [SEQ ID NO: 204]			11 -log M	5.6 -log M				
H[Aib]EGTFTSDVSVLK([AEEA-AEEA-γGlu-C20 diacid])ETAAQQRFLEHLV-NH2 [SEQ ID NO: 41]	11.1 -log M	6.9 -log M						
H[Aib]EGTFTSDVSRLK([AEEA-AEEA-γGlu-C20 diacid])EEA[Aib]LQRFLEHLVEAA-NH2 [SEQ ID NO: 208]			10.6 -log M	7.6 -log M	0.022	10.6 -log M	24	7.6 -log M
H[Aib]EGTFTSDVSRLK([AEEA-AEEA-γGlu-C18 diacid])EGAAEQRFLQHLVAAE-NH2 [SEQ ID NO: 206]			10.8 -log M	5.3 -log M				
H[Aib]EGTFTSDVSTLK([AEEA-AEEA-γGlu-C20 diacid])ETAAEQRFLEHLV-NH2 [SEQ ID NO: 42]	10.8 -log M	5.5 -log M						
H[Aib]EGTFTSDVSVLK([AEEA-AEEA-γGlu-C20 diacid])E[Aib]AATQRFLEHLV-NH2 [SEQ ID NO: 49]	10.7 -log M	6.9 -log M						
B1			10.9 -log M	6.4 -log M	0.0098	11 -log M	330	6.5 -log M
H[Aib]EGTFTSDVSELK([AEEA-AEEA-γGlu-C20 diacid])ETAA[Aib]QRFLEHLV-NH2 [SEQ ID NO: 45]	10.7 -log M	5.7 -log M						
H[Aib]EGTFTSDVSTLK([AEEA-AEEA-γGlu-C20 diacid])E[Aib]AAAQRFLEHLV-NH2 [SEQ ID NO: 43]	11 -log M	6.5 -log M						
